The labels stand for the following.
B1: D1min W293A (peptide)
peptide: APQAMLPLLLGLY
modifications: N-terminal acetyl, C-terminal amide (Ac-APQAMLPLLLGLY-NH2, printed for the NMR samples)

We go through three molecules from paper doi:10.1101/720318 (bioRxiv, 2019).

This assay has as its target BKV serotype 1 VP1 (30-297) pentamer (BK polyomavirus). In words: AlphaScreen or HTRF. In general terms: Alpha assays give light when donor and acceptor beads are brought close together.
APQWMLPALLGLY [D1min L297A]: the binding result is on record as “binds”. Regarding B1, the binding result is reported as “binds”.

Regarding APQWMLPLALGLY [D1min L298A], the binding result is on record as “binds”.
